Values of other authors as cited in patent US20220280635A1, “PARTICLES FOR STIMULATING AN IMMUNE RESPONSE AGAINST VIRAL INFECTIONS” (FINNCURE OY, priority 2020, published 2022).

Target: ACE2 (Homo sapiens, UniProt Q9BYF1)
Details: simulation, ref [8]

ACE2, sequence (Q9BYF1 18-805): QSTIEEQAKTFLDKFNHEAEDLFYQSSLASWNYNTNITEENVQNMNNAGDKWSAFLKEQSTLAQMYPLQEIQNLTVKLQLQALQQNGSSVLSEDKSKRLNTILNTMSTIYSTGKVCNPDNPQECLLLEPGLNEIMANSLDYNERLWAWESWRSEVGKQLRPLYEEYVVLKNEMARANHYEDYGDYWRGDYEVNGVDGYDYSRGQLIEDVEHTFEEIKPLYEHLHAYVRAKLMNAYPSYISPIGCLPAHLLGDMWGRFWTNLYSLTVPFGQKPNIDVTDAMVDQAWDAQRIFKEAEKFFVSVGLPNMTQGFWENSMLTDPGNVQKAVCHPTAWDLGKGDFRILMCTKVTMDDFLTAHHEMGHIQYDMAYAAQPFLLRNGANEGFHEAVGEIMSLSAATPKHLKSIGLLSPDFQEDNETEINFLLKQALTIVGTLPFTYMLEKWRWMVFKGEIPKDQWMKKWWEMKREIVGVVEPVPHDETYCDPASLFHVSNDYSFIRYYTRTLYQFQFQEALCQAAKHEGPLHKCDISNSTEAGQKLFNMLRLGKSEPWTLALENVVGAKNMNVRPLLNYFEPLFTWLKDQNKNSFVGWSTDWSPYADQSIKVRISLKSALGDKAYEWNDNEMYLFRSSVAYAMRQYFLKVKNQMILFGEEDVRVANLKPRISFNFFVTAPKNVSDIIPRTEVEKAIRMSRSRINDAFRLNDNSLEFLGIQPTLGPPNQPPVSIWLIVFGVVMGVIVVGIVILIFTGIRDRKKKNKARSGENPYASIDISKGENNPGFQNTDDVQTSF

| Substance | binding affinity towards the ACE2 receptor compared with YKYRYL |
| --- | --- |
| YKYNYL: alternative synthetic hexapeptide variant (Potential alternative synthetic hexapeptide variant) | even stronger binding affinity |
| YKYNYI: alternative synthetic hexapeptide variant (Potential alternative synthetic hexapeptide variant) | even stronger binding affinity |
